This note sets out measurements from patent US20140298544A1, “Engineered PEP carboxylase variants for improved plant productivity” (PIONEER HI BRED INTERNATIONAL INC, priority 2011, published 2014).

The chains are these.
B1: 3D5-D12: maize C4 PEPC variant, 7 amino acid substitutions, SEQ ID NO: 24 (protein)
chain: MASTKAPGPGEKHHSIDAQLRQLVPGKVSEDDKLIEYDALLVDRFLNILQDLHGPSLREFVQECYEVSADYEGKGDTTKLGELGARLTGLAPADAILVASSILHMLNLANLAEEAQIAHRRRNSKLKKGGFADEGSATTESDIEETLKRLVSEVGKSPEEVFEALKNQTVDLVFTAHPTQSARRSLLQKNAGIRNCLTQLNAKDITDDDKQELDEALQREIQAAFRTDEIRRAQPTPQDEMRYGMSYIHETVWKGVPKFLRRVDTALKNIGINERLPYNVSLIRFSSWMGGDRDGNPRVTPEVTRDVCLLARMMAANLYIDQIEELMFELSMWRCNDELRVRAEELHASAGSKVTKYYIEFWKQIPPNEPYRVILGHVRDKLYNTRERARHLLASGVSEISAESSFTSIEEFLEPLELCYKSLCDCGDKAIADGSLLDLLRQVFTFGLSLVKLDIRQESERHTDVIDAITTHLGIGSYREWSEDKRQEWLLSELKGKRPLLPPDLPQTDEIADVIGAFHVLAELPPDSFGPYIISMATAPSDVLAVELLQRECGVRQPLPVVPLFERLADLQSAPASVERLFSVDWYMDRIKGKQQVMVGYSDSGKDAGRLSAAWQLYRAQEEMAQVAKRYGVKLTLFHGRGGTVGRGGGPTHLAILSQPPDTINGSIRVTVQGEVIEFCFGEEHLCFQTLQRFTAATLEHGMHPPVSPKPEWRKLMDEMAVVATEEYRSVVVKEPRFVEYFRSATPETEYGRMNIGSRPAKRRPGGGITTLRAIPWIFSWTQTRFHLPVWLGVGAAFKFAIDKDVKNFQVLKEMYNEWPFFRVTLDLLEMVFAKGDPGIAGLYDELLVAEELKPFGKQLRDKYVETQQLLLQIAGHKDILEGDPFLKQGLVLRNPYITTLNVFQAYTLKRIRDPNFKVTPQPPLSKEFADENKPAGLVKLNPASEYPPGLEDTLILTMKGIAAGMQNTG
modifications: shuffled variant
B2: WT: wild-type maize C4 PEPC enzyme, SEQ ID NO: 26 (protein)
chain: B1 chain with R86K, A115V, G192R, A348S, A350S, K495R, K807R
modifications: Zea mays
B3: 3D10-G8: maize C4 PEPC variant, 14 amino acid substitutions, SEQ ID NO: 20 (protein)
chain: MASTKAPGPGEKHHSIDAQLCQLVPGKVSEDDKLIEYDALLVDRFLNILQDLHGPSLREFVQECYEVSADYEGKGDTTKLGELGAKLTGLAPADAILVASSILHMLNLANLAEEAQIALRRRNSKLKKGGFADEGSATTESDIEETLKRLVSEVGKSPEEVFEALKDQTVDLVFTAHPTQSARRSLLQKNARIRNCLTQLNAKDITDDDKQELDEALQREIQAAFRTDEIRRAQPTPQDEMRYGMSYIHETVWKGVPKFLRRVDTALKNIGINERLPYNVSLIRFSSWMGGDRDGNPRVTPEVTRDVCLLARMMAANLYIDQIEELMFELSMWRCNDELRVRAEELHASAGSKVTKYYIEFWKQIPPNEPYRVILGHVRDKLYNTRERARHLLASGVSEISAESSFTSIEEFLEPLELCYKSLCDCGDKAIADGSLLDLLRQVFTFGLSLVKLDIRQESERHTDVIDAITTYLGIGSYREWSEDKRQEWLLSELKGKRPLLPPDLPQTDEIADVIGAFHVLAELPPDSFGPYIISMATAPSDVLAVELLQRECGIKQPLPVVPLFERLADLQSAPASVERLFSVDWYMDRIKGKQQVMVGYSDSGKDAGRLSAAWQLYKAQEEMAQVAKRYGVKLTLFHGRGGTVGRGGGPTHLAILSQPPDTINGSIRVTVQGEVIEFCFGEEHLCFQTLQRFTAATLEHGMHPPVSPKPEWRKLMDEMAVVATEEYRSVVVKEPRFVEYFRSATPETEYGRMNIGSRPAKRRPGGGITTLRAIPWIFSWTQTRFHLPVWLGVGAAFKWAIDKDVKNFQVLKEMYNEWPFFRVTLDLLEMVFAKGDPGIAGLYDELLVAEELKPFGKQLRDKYVETQQLLLQIAGHKDILEGDPFLKRGLVLRNPYITTLNVFQAYTLKRIRDPNFKVTPQPPLSKEFADENKPAGLVKLNPASEYPPGLEDTLILTMKGIAAGMQNTG
modifications: shuffled variant

Numbering of substitutions follows the chain as printed.

The test system of one data set is maize C4 PEPC. The data set can be described thus: Kinetic and regulatory properties of PEPC variants (expressed in E. coli). The format is biochemical. The following applies: PEP substrate, no activators. An excerpt: Libraries of modified PEPC polynucleotides were generated using recursive sequence recombination methods (Stemmer, Proc. Natl. Acad. Sci USA 91:10747-10751; Ness, et. al., Nature Biotechnology 20:1251-1255), also known as gene shuffling methods. These libraries incorporated diversity from related PEPC enzymes and also incorporated other designed and random changes. The starting polynucleotide sequence in which the diversity was incorporated was the maize C4 PEPC as shown in SEQ ID NO: 25. Each PEPC variant was expressed in E. coli as a thioredoxin fusion using the pET 32 expression vector (Novagen) with the E. coli expression strain Rosetta gami 2 BL21 DE3 pLYS S. Cultures expressing the variants were grown in 96-well culture blocks, lysed, and then PEPC activity and PEPC protein abundance were determined. The variants with high specific activity were subjected to further rounds of shuffling, for a total of 3 rounds. Examples of nucleotide and amino acid sequences of PEPC variants obtained with this method are SEQ ID NO: 4 to 24.
Detailed kinetic studies of PEPC variants were done in accordance with methods known in the art. See, for example, Tovar-Mendez et al. (2000) Plant Physiol. 123: 149-160; Tover-Mendez et al. (1998) Biochem. J. 332: 633-642.
PEPC variants had several improved properties in comparison with wild type PEPC, including greater affinity (lower S0.5 values) with respect to the bicarbonate substrate, greater Kcat/S0.5 values with the bicarbonate or PEP substrates, greater activation (lower A0.5 values) with […] or glycine as activators and greater Ki values with malate as inhibitor.
B1: the “PEP, no activators kcat/S0.5” value worked out at 151000 M⁻¹ s⁻¹.
B2: the “PEP, no activators kcat/S0.5” value is 34100 M⁻¹ s⁻¹.
On the same count and under the same terms, next, B3: 86200 M⁻¹ s⁻¹.

Still in this data set, the particulars now being: PEP substrate, no activators; relative to wild type.
B1: the “PEP, no activators kcat/S0.5 % wt” value is reported as 442 % wt.
On to B2, for which the “PEP, no activators kcat/S0.5 % wt” value is reported as 100 % wt.
As for B3, the “PEP, no activators kcat/S0.5 % wt” value is reported as 253 % wt.

Still in this data set, the particulars now being: PEP substrate, with activators.
For B1, the “PEP, with activators kcat/S0.5” value was 5.551e+06 M⁻¹ s⁻¹.
The same measure, in the same setting: next, B2: 2.443e+06 M⁻¹ s⁻¹.
On the same count and under the same terms, next, B3: 4.613e+06 M⁻¹ s⁻¹.

Still in this data set, the particulars now being: PEP substrate, with activators vs no activators.
B1: the “kcat/S0.5 Fold incr.” value is reported as 36.9 Fold incr.
Still for that read-out and setting: next, B2: 71.6 Fold incr; B3: 53.5 Fold incr.

The data set is the same for the next values; noted with them: PEP substrate, with activators; relative to wild type.
Regarding B1, the “PEP, with activators kcat/S0.5 % wt” value came out at 227 % wt.
For B2, the “PEP, with activators kcat/S0.5 % wt” value is 100 % wt.
Still for that read-out and setting: next, B3: 189 % wt.

Staying with this data set, now noted: activator Glc-6-P.
Turning to B1, the “Glc-6-P Vmax Fold incr” value is on record as 4.3 Fold incr.
Same read-out and setting: next, B2: 23.1 Fold incr; B3: 2.5 Fold incr.

Staying with this data set, now noted: activator Glc-6-P; read-out: Glc-6-P A0.5.
Regarding B1, the EC50 came to 1.88 mM.
For the molecule B2, the EC50 came out at 6.8 mM.
Same read-out and setting: next, B3: 0.92 mM.

Staying with this data set, now noted: activator Glc-6-P; relative to wild type.
Take B1: the “Glc-6-P A0.5 % wt” value turned out to be 28 % wt.
Still for that read-out and setting: next, B2: 100 % wt.
Still for that read-out and setting: next, B3: 14 % wt.

The data set is the same for the next values; noted with them: activator glycine.
With B1, the “Glycine Vmax Fold incr” value is 4.1 Fold incr.
Regarding B2, the “Glycine Vmax Fold incr” value stood at 15.9 Fold incr.
As for B3, the “Glycine Vmax Fold incr” value is 3.6 Fold incr.

Still in this data set, the particulars now being: activator glycine; read-out: Glycine A0.5.
B1: the EC50 is 0.32 mM.
On the same count and under the same terms, next, B2: 3.62 mM; B3: 0.23 mM.

Still in this data set, the particulars now being: activator glycine; relative to wild type.
Turning to B1, the “Glycine A0.5 % wt” value worked out at 9 % wt.
On the same count and under the same terms, next, B2: 100 % wt.
On the same count and under the same terms, next, B3: 6 % wt.

The data set is the same for the next values; noted with them: bicarbonate substrate.
In the case of B1, the “HCO3 S0.5” value came to 0.0277 mM and the “HCO3 kcat/S0.5” value was 3.454e+06 M⁻¹ s⁻¹.
On to B2, for which the “HCO3 S0.5” value amounted to 0.0282 mM and the “HCO3 kcat/S0.5” value turned out to be 2.122e+06 M⁻¹ s⁻¹.
Turning to B3, the “HCO3 S0.5” value is reported as 0.0255 mM and the “HCO3 kcat/S0.5” value was found to be 3.2e+06 M⁻¹ s⁻¹.

Staying with this data set, now noted: bicarbonate substrate; relative to wild type.
B1: the “HCO3 kcat/S0.5 % wt” value is listed as 163 % wt.
Still for that read-out and setting: next, B2: 100 % wt; B3: 151 % wt.

The data set is the same for the next values; noted with them: inhibitor malate.
Consider B1, for which the Ki (usually the dissociation constant of the complex between target and ligand, obtained from inhibition or displacement) worked out at 4 mM.
On the same count and under the same terms, next, B2: 0.4 mM; B3: 5 mM.

Staying with this data set, now noted: inhibitor malate; relative to wild type.
Regarding B1, the “Malate Ki % wt” value stood at 1000 % wt.
Still for that read-out and setting: next, B2: 100 % wt; B3: 1250 % wt.
